Experimental findings from patent US20100119511A1 (Biogen, published 2010) are described below.

First the molecules themselves.
B1: BIIB66C01 Fab (Fab, V domains shown)
VH: EVQLLESGGGLVQPGGSLRLSCAASGFTFSWYSMSWVRQAPGKGLEWVSSISSSGGPTHYADSVKGRFTISRDNSKNTLYLQMNSLRAEDTAVYYCARDSSYSGTSWGQGTLVTVSS
VL: QYELTQPPSVSGTPGQRVTISCSGSSSNIGSEYVYWFQQLPGTAPRLLIYRNDQRPSGVPDRFSGSKSGTSASLAISGLRSEDETDYYCTTWDDSLSGPVFGGGTKLTVL
notes: Soluble human Fab from a phagemid Fab library
B2: BIIB65B03 Fab (Fab, V domains shown)
VH: EVQLLESGGGLVQPGGSLRLSCAASGFTFSWYRMNWVRQAPGKGLEWVSSIYSSGGPTNYADSVKGRFTISRDNSQNTLYLQMNSLRAEDTAVYYCTREKPDYYDSSGYLDYWGQGTLVTVSS
VL: DIQMTQSPGTLSLSPGERSTLSCRASQSVSSSYLAWYQQKPGQAPRLLIYGASSRATGIPDRFSGSGSGTDFTLTISRLEPEDFGVYYCHQYGRPPVFGPGTKVDIK
notes: as for B1
B3: BIIB66A12 Fab (Fab, V domains shown)
VH: EVQLLESGGGLVQPGGSLRLSCAASGFTFSMYSMQWVRQAPGKGLEWVSVIGSSGGQTGYADSVKGRFTISRDNSKNTLYLQMNSLRAEDTAVYYCARVRDYYGSGSYYLDPWGQGTLVTVSS
VL: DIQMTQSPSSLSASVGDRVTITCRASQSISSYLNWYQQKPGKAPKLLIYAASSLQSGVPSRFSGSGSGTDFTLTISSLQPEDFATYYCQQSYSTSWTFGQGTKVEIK
notes: as for B1
B4: BIIB65H09 Fab (Fab, V domains shown)
VH: EVQLLESGGGLVQPGGSLRLSCAASGFTFSWYSMWWVRQAPGKGLEWVSSIVSSGGQTRYADSVKGRFTISRDNSKNTLYLQMNSLRAEDTAVYYCARVKGYYYYIDVWGKGTTVTVSS
VL: DIQMTQSPGTLSLSPGERATLSCRASQSVDSSYLSWYQQKPGQAPRLLIYGASTRATGIPARFSGSGSGTDFTLTVSRLEPEDFAVYYCQQHGYSSRTFGQGTKVEIK
notes: as for B1
B5: BIIB65C10 Fab (Fab, V domains shown)
VH: EVQLLESGGGLVQPGGSLRLSCAASGFTFSYYPMMWVRQAPGKGLEWVSSIWPSGGFTKYADSVKGRFTISRDNSKNTLYLQMNSLRAEDTATYYCARVSSSSWYGYLYWGQGTLVTVSS
VL: not shown
notes: as for B1
B6: BIIB71F10 Fab (Fab, V domains shown)
VH: EVQLLESGGGLVQPGGSLRLSCAASGFTFSSYGMVWVRQAPGKGLEWVSSISSSGGLTWYADSVKGRFTISRDNSKNTLYLQMNSLRAEDTAVYYCASPPGIAVARDYWGQGTLVTVSS
VL: DIQMTQSPSSLSASVGDRVTITCRASQGISNYLAWYQQKPGKVPKLLIYAASTLQSGVPSRFSGSGSGTDFTLTISSLQPEDVATYYCQKYNSALLTFGGGTKVEIK
notes: Soluble human Fab; also called Fab 71F10
B7: 71F10 Fab-hLIGHT fusion with the (G4S)4 linker (BIIB71F10-132) (other)
heavy: EVQLLESGGGLVQPGGSLRLSCAASGFTFSSYGMVWVRQAPGKGLEWVSSISSSGGLTWYADSVKGRFTISRDNSKNTLYLQMNSLRAEDTAVYYCASPPGIAVARDYWGQGTLVTVSSASTKGPSVFPLAPSSKSTSGGTAALGCLVKDYFPEPVTVSWNSGALTSGVHTFPAVLQSSGLYSLSSVVTVPSSSLGTQTYICNVNHKPSNTKVDKKVEPKSCDKGGGGSGGGGSGGGGSGGGGSNPAAHLTGANSSLTGSGGPLLWETQLGLAFLRGLSYHDGALVVTKAGYYYIYSKVQLGGVGCPLGLASTITHGLYKRTPRYPEELELLVSQQSPCGRATSSSRVWWDSSFLGGVVHLEAGEEVVVRVLDERLVRLRDGTRSYFGAFMV
light: DIQMTQSPSSLSASVGDRVTITCRASQGISNYLAWYQQKPGKVPKLLIYAASTLQSGVPSRFSGSGSGTDFTLTISSLQPEDVATYYCQKYNSALLTFGGGTKVEIKRTVAAPSVFIFPPSDEQLKSGTASVVCLLNNFYPREAKVQWKVDNALQSGNSQESVTEQDSKDSTYSLSSTLTLSKADYEKHKVYACEVTHQGLSSPVTKSFNRGEC
notes: Fab heavy chain fused to human LIGHT extracellular portion; assembles as a trimer; also called 71F10 Fab-(G4S)4-LIGHT

Several values for one entry are separate records, joined by “and”; a condition that tells them apart may be missing. Equal values may be shown once.

Chain of Soluble human LTBR (shuLTBR) (P36941 31-227 limits assumed): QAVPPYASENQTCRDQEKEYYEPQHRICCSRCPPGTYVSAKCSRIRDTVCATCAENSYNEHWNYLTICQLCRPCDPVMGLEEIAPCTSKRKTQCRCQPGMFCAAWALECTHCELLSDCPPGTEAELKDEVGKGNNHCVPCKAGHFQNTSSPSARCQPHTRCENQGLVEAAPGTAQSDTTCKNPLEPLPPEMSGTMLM

The first assay has as its target T1, D1-D2 Her2-Fc.
T1 construct: also called MR067; ErbB2-Fc Domains 1-2; not shown: huIgG1-Fc part
T1 chain: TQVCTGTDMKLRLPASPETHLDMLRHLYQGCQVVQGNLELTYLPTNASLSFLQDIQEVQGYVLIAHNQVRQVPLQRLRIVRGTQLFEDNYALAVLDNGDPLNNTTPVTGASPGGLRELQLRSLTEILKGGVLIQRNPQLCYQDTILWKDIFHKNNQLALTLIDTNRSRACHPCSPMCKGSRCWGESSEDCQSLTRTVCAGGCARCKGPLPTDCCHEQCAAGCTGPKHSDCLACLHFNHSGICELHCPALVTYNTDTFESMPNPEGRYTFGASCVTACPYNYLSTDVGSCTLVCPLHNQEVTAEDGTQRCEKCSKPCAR
Description: ELISA, HER2 domain-Fc captured on anti-huFc, detection HRP-anti-fab. As for the experimental part: (§1) Nunc Maxisorp ELISA plates were coated with 5 ug/ml rabbit pAbs anti-human Fc gamma in PBS overnight at 4 degrees. Plates were washed one time with PBST (PBS, 0.05% tween 20) and blocked with 1% BSA in PBS for one hour at room temperature. Plates were washed one time with PBST and incubated with 1 ug/ml HER2-Fc fusion protein for one hour. Plates were washed three times with PBST and dilutions of Fab (four 5-fold serial dilutions, starting at 1 ug/ml) in block were added and incubated for ninety minutes. Plates were washed three times with PBST and incubated with 1:2,000 HRP-labelled goat anti-human kappa (Southern Biotech cat#2060-05) and HRP-labelled goat anti-human lambda (Southern Biotech cat#2070-05) in block for one hour at room temperature. Plates were washed three times with PBST, developed with TMB solution for 5 minutes, and stopped with equal volume 1 NH₂SO₄. Absorbance values were read at 450 nm.
On the technique in general: In an ELISA, binding on a coated surface is turned into a signal by an enzyme label.
Consider B1, for which the binding result is “no binding (tested: 1 ug/ml (from paragraph 380, not on the sheet))”.

For the molecule B2, the binding result was “no binding (tested: 1 ug/ml (from paragraph 380, not on the sheet))”.

Turning to B3, the binding result is given as “no binding (tested: 1 ug/ml (from paragraph 380, not on the sheet))”.

In the case of B4, the binding result was “no binding (tested: 1 ug/ml (from paragraph 380, not on the sheet))”.

The target in a further assay is T2, D1 Her2-Fc.
T2 construct: also called MR066; ErbB2-Fc Domain 1; not shown: huIgG1-Fc part
T2 chain: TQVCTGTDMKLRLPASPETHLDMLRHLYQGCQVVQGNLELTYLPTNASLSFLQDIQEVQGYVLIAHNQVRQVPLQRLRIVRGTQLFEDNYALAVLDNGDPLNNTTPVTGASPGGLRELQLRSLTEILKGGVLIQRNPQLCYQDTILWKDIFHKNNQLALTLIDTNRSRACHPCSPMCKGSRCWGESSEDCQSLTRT
The assay is described as above. As for the experimental part:
as §1
B1: the binding result was “no binding (tested: 1 ug/ml (from paragraph 380, not on the sheet))”.

Turning to B2, the binding result is “no binding (tested: 1 ug/ml (from paragraph 380, not on the sheet))”.

Take B5: the binding result is on record as “no binding (tested: 1 ug/ml (from paragraph 380, not on the sheet))”.

B3: the binding result is recorded as “no binding (tested: 1 ug/ml (from paragraph 380, not on the sheet))”.

For the molecule B4, the binding result is “no binding (tested: 1 ug/ml (from paragraph 380, not on the sheet))”.

Regarding B6, the binding result is on record as “no binding (tested: 1 ug/ml (from paragraph 380, not on the sheet))”.

A further assay addresses Soluble human LTBR (shuLTBR) (human, UniProt P36941 31-227, limits assumed). Kind of assay: SEC / light scattering. As for the experimental part: Soluble human LTBR (shuLTBR) was prepared by limited proteolytic digestion of human LTBR-Ig and purified by chromatography on protein A Sepharose and Fractogel TMAE. […] Controls with each protein were also included. The samples were analyzed by SEC using a […] column (Phenomenex) in PBS with a Waters Alliance HPLC instrument.
With B7, the “stoichiometry (shuLTBR per Fab-Light trimer)” value is 2 shuLTBR per trimer and 3 shuLTBR per trimer.
